Experimental data taken from article PMC3079881 (Developmental cell, 2011).

Target: the molecule itself
Assay: negative-stain electron microscopy of purified complexes

B1: Cdc11 (natural protein, S. cerevisiae, UniProt P32458 1-415, looked up)
chain: MSGIIDASSALRKRKHLKRGITFTVMIVGQSGSGRSTFINTLCGQQVVDTSTTILLPTDTSTEIDLQLREETVELEDDEGVKIQLNIIDTPGFGDSLDNSPSFEIISDYIRHQYDEILLEESRVRRNPRFKDGRVHCCLYLINPTGHGLKEIDVEFIRQLGSLVNIIPVISKSDSLTRDELKLNKKLIMEDIDRWNLPIYNFPFDEDEISDEDYETNMYLRTLLPFAIIGSNEVYEMGGDVGTIRGRKYPWGILDVEDSSISDFVILRNALLISHLHDLKNYTHEILYERYRTEALSGESVAAESIRPNLTKLNGSSSSSTTTRRNTNPFKQSNNINNDVLNPASDMHGQSTGENNETYMTREEQIRLEEERLKAFEERVQQELLLKRQELLQREKELREIEARLEKEAKIKQEE
binding result: binds
